# B1: mAb NIMP.M7, PfSUB1-specific monoclonal antibody (whole antibody) (antibody, V domains shown)
# VH: QVQLQESGPDLVKPSSSLKLTCTTTGYSISSGYSWHWIRQEPGKSLEWMGYIHYSGSTDYNDSLKARITITRDTASNMFFLQLSSVTSDDTAVYYCVIYRYDGQWVFDDWGAGTTVTVSS
# VL: DIVLTQSPATMSASLGQRVSMSCSASSSVSTSYFHWYQQKPGSSPKLWIYSTSNLASGVPGRFSGSGSGTSYSLSISSMEAEDAATYYCHQFHRSPLTFGAGTKLELK
# What was measured:
# [1] = molecular target: T1, recombinant P. vivax SUB1 (Plasmodium vivax, PVX_097935 (Salvador …, UniProt E6Y8B9)); assay: western blot; conditions: both partners purified
# T1 construct: also called PvSUB1
# T1 sequence (E6Y8B9 26-630): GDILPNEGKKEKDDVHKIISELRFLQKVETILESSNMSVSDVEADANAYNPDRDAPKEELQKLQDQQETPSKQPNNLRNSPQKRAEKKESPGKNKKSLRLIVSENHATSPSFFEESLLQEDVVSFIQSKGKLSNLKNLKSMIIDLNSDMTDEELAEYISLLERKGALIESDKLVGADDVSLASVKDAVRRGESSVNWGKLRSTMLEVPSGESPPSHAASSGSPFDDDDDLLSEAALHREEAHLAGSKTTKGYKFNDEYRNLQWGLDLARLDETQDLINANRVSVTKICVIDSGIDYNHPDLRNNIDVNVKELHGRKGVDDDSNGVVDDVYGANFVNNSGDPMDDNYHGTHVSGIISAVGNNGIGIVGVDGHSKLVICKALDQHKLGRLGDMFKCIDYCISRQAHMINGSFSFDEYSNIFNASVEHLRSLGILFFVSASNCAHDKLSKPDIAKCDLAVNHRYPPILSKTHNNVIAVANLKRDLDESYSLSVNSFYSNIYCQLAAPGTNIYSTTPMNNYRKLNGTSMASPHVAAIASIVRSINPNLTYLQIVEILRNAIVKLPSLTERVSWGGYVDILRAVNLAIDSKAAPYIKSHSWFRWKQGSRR
# [2] = molecular target: rPfSUB1cat, recombinant Plasmodium falciparum SUB1 core catalytic domain (38 kDa) (Plasmodium falciparum, UniProt Q8I0V0); assay: western blot; conditions: both partners purified
# Chain of rPfSUB1cat, recombinant Plasmodium falciparum SUB1 core catalytic domain (38 kDa) (Q8I0V0 333-668): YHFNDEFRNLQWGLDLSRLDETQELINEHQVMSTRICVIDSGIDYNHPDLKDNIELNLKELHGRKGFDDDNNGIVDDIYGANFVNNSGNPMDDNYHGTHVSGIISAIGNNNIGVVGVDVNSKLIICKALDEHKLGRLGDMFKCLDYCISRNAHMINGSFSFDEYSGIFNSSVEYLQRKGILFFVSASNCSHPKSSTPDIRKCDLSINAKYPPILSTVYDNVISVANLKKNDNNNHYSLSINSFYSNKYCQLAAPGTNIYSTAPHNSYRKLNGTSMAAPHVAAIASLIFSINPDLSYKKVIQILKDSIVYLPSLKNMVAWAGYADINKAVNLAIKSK
binder,measurement,setting,value
B1,binding result,[1],binds
same,binding result,[2],binds

# — article PMC4024747 (Nature Communications, 2014)
